Test results taken from PMC6266874.

Tests used:
Experiment in all cases: GST-WRKY pull-down of BIK1-HA from leaf extract
Conditions in all cases: reference: wild type BIK1; sites S89,T90
WRKY50 = WRKY50 (UniProt Q8VWQ5)
WRKY33 = WRKY33 (UniProt Q8S8P5)
WRKY57 = WRKY57 (UniProt Q9C983)

Measured: binding against the reference

BIK1 (Botrytis-induced kinase 1) (from UniProt O48814) S89A/T90A
stronger: all assays above
